Experimental findings from PMC2879511 (Nucleic Acids Research, 2010) are described below.

The chains are these.
B2: 4-subunit middle module complex Med7/10/21/31-His6 (complex)
chain 1: MSNDPGNEVSSLYPPPPPYVKFFTQSNLEKLPKYKEKKAASAKQTAPNNSNGGSEEEITCALDYLIPPPMPKNQQYRAFGSIWQVKDQLPDLESMGLTQLYKKSTENESTNYQYKIQELRKLLKSLLLNYLELIGVLSINPDMYERKVENIRTILVNIHHLLNEYRPHQSRESLIMLLEEQLEYKRGEIREIEQVCKQVHDKLTSIQDTLRTGSQSPPSSSQ
chain 2: MNGNSTNNEQLQQELATTQDQVASIIESFVELGVSIYDFPGTPEATKGMITNLQRNVDRLYKLNVRSNDPQSSLSKVDIPLEVVQYIEDGRNPDIYTREFVEAIRRSNQYQRGKMHGLKQLRDSLADKIVDEFPELKEPVEDIIKRTSPIDNVSNTH
chain 3: MTDRLTQLQICLDQMTEQFCATLNYIDKNHGFERLTVNEPQMSDKHATVVPPEEFSNTIDELSTDIILKTRQINKLIDSLPGVDVSAEEQLRKIDMLQKKLVEVEDEKIEAIKKKEKLLRHVDSLIEDFVDGIANSKKST
chain 4: […]
B3: Med7 (recombinant) (natural protein)
chain: MSNDPGNEVSSLYPPPPPYVKFFTQSNLEKLPKYKEKKAASAKQTAPNNSNGGSEEEITCALDYLIPPPMPKNQQYRAFGSIWQVKDQLPDLESMGLTQLYKKSTENESTNYQYKIQELRKLLKSLLLNYLELIGVLSINPDMYERKVENIRTILVNIHHLLNEYRPHQSRESLIMLLEEQLEYKRGEIREIEQVCKQVHDKLTSIQDTLRTGSQSPPSSSQ

Series [1] has as its target 6-subunit complex Med4/7/9/10/21/31 of the coexpressed 7-subunit middle module (S. cerevisiae, UniProt Q12343;Q08278;P33308;Q06213;P47822;P38633). Put plainly: native MS.
The series “native MS” deals with the molecule itself. Put plainly: native MS.
The target in series [2] is T1, Med4 (recombinant) (S. cerevisiae, UniProt Q12343 1-284).
T1 sequence: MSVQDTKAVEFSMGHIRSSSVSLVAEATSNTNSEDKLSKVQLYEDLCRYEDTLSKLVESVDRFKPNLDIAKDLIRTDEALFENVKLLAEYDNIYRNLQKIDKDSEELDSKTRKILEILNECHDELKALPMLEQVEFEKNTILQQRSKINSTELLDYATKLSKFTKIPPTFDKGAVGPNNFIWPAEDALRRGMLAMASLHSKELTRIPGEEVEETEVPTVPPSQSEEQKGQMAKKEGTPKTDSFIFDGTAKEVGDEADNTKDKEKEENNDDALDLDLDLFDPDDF
As to the kind of experiment: native MS.

The target in the series “Med7 (recombinant)” is B3. As to the kind of experiment: native MS.
Series [3] concerns the target T1, Med4 (recombinant). As to the kind of experiment: copurification after coexpression.
In series [4] the target is B2. Put plainly: native MS.

B1: StrepII-tagged Med1 (natural protein)
chain: MVEGDSYVETLDSMIELFKDYKPGSITLENITRLCQTLGLESFTEELSNELSRLSTASKIIVIDVDYNKKQDRIQDVKLVLASNFDNFDYFNQRDGEHEKSNILLNSLTKYPDLKAFHNNLKFLYLLDAYSHIESDSTSHNNGSSDKSLDSSNASFNNQGKLDLFKYFTELSHYIRQCFQDNCCDFKVRTNLNDKFGIYILTQGINGKEVPLAKIYLEENKSDSQYRFYEYIYSQETKSWINESAENFSNGISLVMEIVANAKESNYTDLIWFPEDFISPELIIDKVTCSSNSSSSPPIIDLFSNNNYNSRIQLMNDFTTKLINIKKFDISNDNLDLISEILKWVQWSRIVLQNVFKLVSTPSSNSNSSELEPDYQAPFSTSTKDKNSSTSNTEPIPRSNRHGSVVEASRRRRSSTNKSKRPSITEAMMLKEEGLQQFNLHEILSEPAIEEENGDSIKEHSTTMDGANDLGFTASVSNQENAGTDIVMEDHGVLQGTSQNYGTATADDADIEMKDVSSKPSKPESSVLQLIVSEDHIILDTISECNLYDDVKCWSKFIEKFQDIVS
Consider B1, for which, in series [1], the “stoichiometry N” value came to 1.
With B2, the “stoichiometry N” value in “native MS” was found to be 2.
Regarding B3, in the series with Med4 (recombinant) [2], the binding result is “binds”.

B4: Med10 (recombinant) (natural protein)
chain: MNGNSTNNEQLQQELATTQDQVASIIESFVELGVSIYDFPGTPEATKGMITNLQRNVDRLYKLNVRSNDPQSSLSKVDIPLEVVQYIEDGRNPDIYTREFVEAIRRSNQYQRGKMHGLKQLRDSLADKIVDEFPELKEPVEDIIKRTSPIDNVSNTH
With B4, the binding result in the series with Med7 (recombinant) is listed as “binds”.

B5: Med21 (recombinant) (natural protein)
chain: MTDRLTQLQICLDQMTEQFCATLNYIDKNHGFERLTVNEPQMSDKHATVVPPEEFSNTIDELSTDIILKTRQINKLIDSLPGVDVSAEEQLRKIDMLQKKLVEVEDEKIEAIKKKEKLLRHVDSLIEDFVDGIANSKKST
In the case of B5, the binding result with Med7 (recombinant) was “binds”.

B6: Med9 (recombinant) (natural protein)
chain: MNLQNNVLNQIHQILLPTNPTLDKPNAEATKEEFSSAENRDEKDYLTNQQPKNLSTPSTSSNGEFIPHIFYSLHQIRKDPNNLSNQLETLTGSIRHRLKLCKSLISENEDTKDLLSKSPSEWQDIIHQREQELQIKRDVLDDLYRKLQR
Regarding B6, the binding result with Med4 (recombinant) [3] is on record as “binds”.

B7: Med4/9 heterodimer (complex)
chain 1: MSVQDTKAVEFSMGHIRSSSVSLVAEATSNTNSEDKLSKVQLYEDLCRYEDTLSKLVESVDRFKPNLDIAKDLIRTDEALFENVKLLAEYDNIYRNLQKIDKDSEELDSKTRKILEILNECHDELKALPMLEQVEFEKNTILQQRSKINSTELLDYATKLSKFTKIPPTFDKGAVGPNNFIWPAEDALRRGMLAMASLHSKELTRIPGEEVEETEVPTVPPSQSEEQKGQMAKKEGTPKTDSFIFDGTAKEVGDEADNTKDKEKEENNDDALDLDLDLFDPDDF
chain 2: MNLQNNVLNQIHQILLPTNPTLDKPNAEATKEEFSSAENRDEKDYLTNQQPKNLSTPSTSSNGEFIPHIFYSLHQIRKDPNNLSNQLETLTGSIRHRLKLCKSLISENEDTKDLLSKSPSEWQDIIHQREQELQIKRDVLDDLYRKLQR
Consider B7, for which the “stoichiometry N” value in series [4] is 1.

B8: 6-subunit middle module complex Med4/7/9/10/21/31 (complex)
chain 1: MSVQDTKAVEFSMGHIRSSSVSLVAEATSNTNSEDKLSKVQLYEDLCRYEDTLSKLVESVDRFKPNLDIAKDLIRTDEALFENVKLLAEYDNIYRNLQKIDKDSEELDSKTRKILEILNECHDELKALPMLEQVEFEKNTILQQRSKINSTELLDYATKLSKFTKIPPTFDKGAVGPNNFIWPAEDALRRGMLAMASLHSKELTRIPGEEVEETEVPTVPPSQSEEQKGQMAKKEGTPKTDSFIFDGTAKEVGDEADNTKDKEKEENNDDALDLDLDLFDPDDF
chain 2: MSNDPGNEVSSLYPPPPPYVKFFTQSNLEKLPKYKEKKAASAKQTAPNNSNGGSEEEITCALDYLIPPPMPKNQQYRAFGSIWQVKDQLPDLESMGLTQLYKKSTENESTNYQYKIQELRKLLKSLLLNYLELIGVLSINPDMYERKVENIRTILVNIHHLLNEYRPHQSRESLIMLLEEQLEYKRGEIREIEQVCKQVHDKLTSIQDTLRTGSQSPPSSSQ
chain 3: MNLQNNVLNQIHQILLPTNPTLDKPNAEATKEEFSSAENRDEKDYLTNQQPKNLSTPSTSSNGEFIPHIFYSLHQIRKDPNNLSNQLETLTGSIRHRLKLCKSLISENEDTKDLLSKSPSEWQDIIHQREQELQIKRDVLDDLYRKLQR
chain 4: MNGNSTNNEQLQQELATTQDQVASIIESFVELGVSIYDFPGTPEATKGMITNLQRNVDRLYKLNVRSNDPQSSLSKVDIPLEVVQYIEDGRNPDIYTREFVEAIRRSNQYQRGKMHGLKQLRDSLADKIVDEFPELKEPVEDIIKRTSPIDNVSNTH
chain 5: MTDRLTQLQICLDQMTEQFCATLNYIDKNHGFERLTVNEPQMSDKHATVVPPEEFSNTIDELSTDIILKTRQINKLIDSLPGVDVSAEEQLRKIDMLQKKLVEVEDEKIEAIKKKEKLLRHVDSLIEDFVDGIANSKKST
chain 6: […]
Consider B8, for which the “stoichiometry N” value in the series “native MS” was determined as 2.

Broadly, the stoichiometry N is a count of units in the complex or per binding partner.
